Test results from patent US20040180380A1.

Assays:
[1] = target: antibody C1; experiment: peptide competition ELISA; competitor for C1
[2] = target: antibody C1; experiment: peptide competition ELISA; reference YEVQGEVF
[3] = target: antibody C1; experiment: peptide competition ELISA; free peptide competes with coated target peptide for C1
[4] = target: antibody P1; experiment: peptide competition ELISA; competitor for P1
[5] = target: antibody P1; experiment: peptide competition ELISA; reference EPAELTDA

Row | Binder | IC50 [1] | fold higher concentration (ineffective) than the antigen PET's half-maximum [2] | IC50 [3] | IC50 [4] | fold higher concentration (ineffective) than the antigen PET's half-maximum [5]
1 | YEVQGEVF [CRP-derived 8-mer PET sequence YEVQGEVF] | – | – | 1 µM | – | –
2 | DPTQLTDA [nearest-neighbor 8-mer DPTQLTDA] | – | – | – | > 1000 µM | 25000 fold

The remaining lines, values ahead:

Row | IC50 [1] | fold higher concentration (ineffective) than the antigen PET's half-maximum [2] | IC50 [3] | IC50 [4] | fold higher concentration (ineffective) than the antigen PET's half-maximum [5] | Binder
3 | > 1000 µM | > 1000 fold | – | – | – | YEVLGEEF [nearest-neighbor 8-mer YEVLGEEF]
4 | – | – | – | > 1000 µM | 25000 fold | EPVELTSA [nearest-neighbor 8-mer EPVELTSA]
5 | > 1000 µM | > 1000 fold | – | – | – | VEVNGEVF [nearest-neighbor 8-mer VEVNGEVF]
